Assay results as given in patent US20190022259A1, “Use of 99mTc-tilmanocept and related molecular constructs for identifying and diagnosing malignant tumors and for monitoring therapeutic anti-tumor interventions” (Navidea Biopharmaceuticals, Inc., priority 2017, published 2019).
“Also recorded” adds a separate entry of the source.

How the values were obtained:
[1] = test system: TAMs around liver metastases (CD206+ macrophages); test: SPECT/CT imaging of colorectal cancer patients with synchronous liver metastasis after intravenous injection; assay type: in vivo, human; details: imaging 4-6 hours after injection
[2] = human, in vivo
Description: A safety follow-up was conducted between 2 to 8 days after the injection.

[3] = rat, in vivo, iv; cited from earlier work

In the case of “(99m)Tc-diethylenetriaminepentaacetic acid (DTPA)-mannosyl-dextran [^99mTc tilmanocept]”, the “localization on SPECT/CT image” value ([1]; first subject, 50 μg/2mCi i.v.) is reported as “localization of ^99mTc tilmanocept in an area of larger metastasis than was observed with the FDG PET/CT; also recorded: suggests the presence of TAMs around the metastasis”, the “localization on SPECT/CT image” value ([1]; second subject, 200 μg/2mCi i.v.) is reported as “Localization around the metastasis was noted” and the adverse drug reactions [2] is reported as “No adverse drug reactions were observed”. The “tolerability of IV injection” value ([2]; iv) was “well-tolerated” and the excretion [3] was “excreted into the urine”.
